Results as given in patent US20260120837A1, “METHODS OF DOSING THERAPEUTIC AGENTS” (Fusion Pharmaceuticals Inc., priority 2022, published 2026).
Read-outs that look alike come from different tables or passages of the source.

How the values were obtained:
[1] = rats; cited from earlier work
[2] = PK parameters for rats and Ctrans, two-compartment model with nonlinear only clearance pathway (phenytoin); assay type: in vivo; details: rats
Procedure: Its PK in rats is described by a two-compartment model with nonlinear only clearance described by M-M equation. For this kind of PK model, […] is determined according to Equation (3): PK parameters listed in Table 2, […] and KM, were obtained based on the protocols disclosed in Della Paschoa et al., 1998, with modification to be consistent with the current model description provided herein.

[3] = cited from earlier work
[4] = PK parameters and Ctrans, two-compartment model with nonlinear M-M clearance only (cetuximab, alemtuzumab); assay type: in vivo, human; details: calculated by Equation (3)
Procedure: For this kind of PK model, Ctrans is determined according to Equation (3): […]
PK parameters listed in Table 1, i.e., Vc, Vp, Q, VM and KM, were obtained based on the protocols disclosed in Dirks et al., 2008 and Mould et al., 2007, with modification to be consistent with the current model description provided herein.

[5] = cited from earlier work; for Kdeg: degradation of free target; for Cl / Q / Vc / Vp: in vivo; for Kint: internalization of drug-target complex; for Ksyn: target synthesis
[6] = PK (TMDD) model parameters and Ctrans, two-compartment TMDD model, QSS approximation; assay type: in vivo, humans; details: for Ctrans: Equation (13); for Ttot = Ksyn/Kdeg: total target concentration
Procedure: For this kind of PK model, Ctrans is determined according to Equation (2), specified by Equation (13).
where VM and KM are calculated from TMDD model parameters according to Equations (11) and (12).
PK parameters listed in Table S were obtained based on the protocols disclosed in Stein & Peletier, 2018 and Rodriguez-Vera et al., 2015, with modification to be consistent with the current model description listed in Equations (7A)-(7D).

[7] = PK parameters and Ctrans, two-compartment model with mixed linear and nonlinear M-M clearance pathways (four antibodies); assay type: in vivo, human; details: calculated by Equation (2), sqrt(KM×VM/Cl)
Procedure: For this kind of PK model, Ctrans is determined according to Equation (2): […]
PK parameters listed in Table 3, i.e., Vc, Cl, Vp, Q, VM and KM, were obtained based on the protocols disclosed in Frey et al., 2010; Kloft et al., 2004; Ma et al., 2009; and Okamoto et al., 2021, with modification to be consistent with the current model description provided here.

[8] = cited from earlier work; for KM / Q / VM / Vc / Vp: in vivo; for Cl: linear clearance
[9] = Minimal dose to keep plasma concentration Cp(t) above Ctrans for Tdur, two-compartment model solved with deSolve (tocilizumab); parameters: species or system humans
Procedure: This example requires that Ttrans for the desired therapeutic dose be greater than the pre-determined duration time point post-administration, which is denoted herein as Tdur.
PK model parameters for tocilizumab such as Vc, Cl, Vp, Q, KM and VM are provided in Example 3. Ctrans is determined to be 8.22 μg/mL or 8.22 mg/L; Tur is pre-determined as 28 days, which is equal to or less than Ttrans.

[10] = in vivo; cited from earlier work
[11] = PK model parameters, Ctrans and therapeutic dose to reach Ctrans at Ttrans, one-compartment model with mixed linear and nonlinear clearance (evolocumab); assay type: in vivo, humans
Procedure: Ttrans to reach the transitional concentration Ctrans for any dose level Cmax is determined according to Equation(S). When Ttrans and Ctrans are known, Cmax and the therapeutic dose can be determined as follows.
According to Equation (2), Ctrans is determined to be 115.18 nM or 17.28 mg/L assuming the molecular weight of 150 kDa or 150 kg/mol for a typical antibody. Ttrans is pre-determined to be 28 days. Ttrans and Ctrans can be used to determine Cmax based on Equation(S). Cmax can be obtained from Equation (5) via any root solver as provided in MATLAB™ and RStudio.
PK parameters listed in Table 6 were obtained based on the protocols disclosed in Kuchimanchi et al., 2018, with modification to be consistent with the current model description listed in Equations (2) and (4).

O=C1NC(=O)C(c2ccccc2)(c2ccccc2)N1 [Phenytoin]
K12 [1]: 0.197 min⁻¹ | K21 [1]: 0.060 min⁻¹ | KM [1]: 5.9 µg/mL | VM [1]: 272 µg/min | Vc [1]: 406 mL | Q = K12 × Vc [2]: 79.98 mL/min | Vp = Q/K21 [2]: 1333 mL | Ctrans ([2]; calculated by Equation (3)): 5.9 µg/mL

Alemtuzumab: antibody; PK described by two-compartment model with nonlinear only clearance
KM ([3]; M-M equation coefficient): 338 (μg/L) | VM ([3]; M-M equation coefficient): 1020 (μg/hour) | Vc ([3]; central compartment distribution volume): 11.3 (L) | Q ([3]; exchange rate between compartments): 1.05 (L/hour) | Vp ([3]; peripheral compartment distribution volume): 41.5 (L) | Ctrans [4]: 338 (μg/L)

Mavrilimumab: antibody; TMDD model under the QSS condition
Kdeg [5]: 2.2 (/day) | Koff ([5]; drug-target binding reverse rate constant): 10 (/day) | Cl [5]: 0.3 (L/day) ^ | Q [5]: 1.7 (L/day) ^ | Vc [5]: 2.8 L | Vp [5]: 5.6 L | Kint [5]: 2.2 (/day) | Ksyn [5]: 2.4 (nM/day)^ | Ctrans [6]: 4.96 (nM) ^ | VM = KsynVc ([6]; in vivo): 6.72 (nmol/Day) | Km ([6]; in vivo, read-out: KM = KQSS): 0.0011 µM | KQSS = (Kint + Koff)/Kon ([6]; quasi-steady-state constant): 1.1 (nM) ^ | Ttot = Ksyn/Kdeg [6]: 1.09 (nM) ^

Nimotuzumab: antibody of Table 5; TMDD model under QSS condition (text b119 says efalizumab)
Kdeg [5]: 5.5 (/hour) | Cl [5]: 0.000703 (L/hour) ^ | Q [5]: 0.00322 (L/hour) | Vc [5]: 1.43 L | Vp [5]: 18.5 L | Kint [5]: 0.148 (/hour) | KQSS = (Kint + Koff)/Kon ([5]; quasi-steady-state constant): 6.96 (mg/L) | Ksyn [5]: 1.43 (μg/mL/hour) | Ctrans [6]: 142.3 (μg/mL) | KM = KQSS ([6]; in vivo): 6.96 (mg/L) | VM = KsynVc ([6]; in vivo): 2.045 (mg/hour) | Ttot = Ksyn/Kdeg [6]: 0.26 (μg/mL)

Panitumumab: antibody; two-compartment model with mixed linear and nonlinear clearance
Ctrans [7]: 3.98 µg/mL | KM [8]: 0.401 µg/mL | Q [8]: 0.389 L/day | VM [8]: 10.6 mg/day | Vc [8]: 3.66 L | Vp [8]: 2.58 L | Cl [8]: 0.269 L/day

Sibrotuzumab: antibody; two-compartment model with mixed linear and nonlinear clearance
Ctrans [7]: 0.579 µg/mL | KM [8]: 0.219 µg/mL | Q [8]: 0.902 L/day | VM [8]: 0.811 mg/day | Vc [8]: 4.13 L | Vp [8]: 3.19 L | Cl [8]: 0.530 L/day

Tocilizumab: antibody; two-compartment model with mixed linear and nonlinear clearance
Ctrans [7]: 8.22 µg/mL | Ctrans [9]: 8.22 mg/L | KM [8]: 2.7 µg/mL | Q [8]: 0.2 L/day | VM [8]: 7.5 mg/day | Vc [8]: 3.5 L | Vp [8]: 2.9 L | Cl [8]: 0.3 L/day

Vedolizumab: antibody; two-compartment model with mixed linear and nonlinear clearance
Ctrans [7]: 0.429 µg/mL | KM [8]: 0.851 µg/mL | Q [8]: 0.161 L/day | VM [8]: 0.238 mg/day | Vc [8]: 3.16 L | Vp [8]: 1.84 L | Cl [8]: 1.10 L/day

B1: Evolocumab: antibody; one-compartment model with mixed linear and nonlinear clearance pathways (antibody, chains of the INN, looked up, V domains shown)
VH: EVQLVQSGAEVKKPGASVKVSCKASGYTLTSYGISWVRQAPGQGLEWMGWVSFYNGNTNYAQKLQGRGTMTTDPSTSTAYMELRSLRSDDTAVYYCARGYGMDVWGQGTTVTVSS
VL: ESALTQPASVSGSPGQSITISCTGTSSDVGGYNSVSWYQQHPGKAPKLMIYEVSNRPSGVSNRFSGSKSGNTASLTISGLQAEDEADYYCNSYTSTSMVFGGGTKLTVL
Cl [10]: 0.105 L/day | Km [10]: 0.0273 µM | VM [10]: 51.02 nmol/day | Vc [10]: 5.18 L | Ctrans ([11]; Equation (2)): 115.18 nM | Ctrans ([11]; assuming molecular weight of 150 kDa): 17.28 mg/L
